Laboratory results taken from PMC8319308.
pKd: −log10 of the molar value.

Target: Gx-SB (protein G adapter domain fused to the small BiT fragment of split NanoLuc) (UniProt P06654)
Experiment: other; 4C2-SB (SB1) conjugate with 19C7-LB; LB-SB affinity

Question: How did the pKd turn out when “Gx-LB (protein G adapter domain fused to the large BiT fragment of split NanoLuc) (from UniProt P06654)” was run?
Answer: Its pKd is 5.60.
